The data set concerns the target SbMYB44 (Salicornia brachiata, UniProt X2J380 1-269). Put plainly: EMSA; 15 mM HEPES, 35 mM KCl, 4 mM EDTA (pH 8.0), 1 mM DTT, 1 mM MgCl2, 6% glycerol, room temperature 20 min; 80 ng probe, 40 ug protein in Methods (ng in Results/Fig. 5); SYBR Green stain. The note with it: protein: recombinant; tags: 6xHis (pET28a, EcoRI/XhoI); blunt. (A gel shift assay detects complexes by their altered migration in electrophoresis.)

Chain of SbMYB44 (X2J380 entry or part of it): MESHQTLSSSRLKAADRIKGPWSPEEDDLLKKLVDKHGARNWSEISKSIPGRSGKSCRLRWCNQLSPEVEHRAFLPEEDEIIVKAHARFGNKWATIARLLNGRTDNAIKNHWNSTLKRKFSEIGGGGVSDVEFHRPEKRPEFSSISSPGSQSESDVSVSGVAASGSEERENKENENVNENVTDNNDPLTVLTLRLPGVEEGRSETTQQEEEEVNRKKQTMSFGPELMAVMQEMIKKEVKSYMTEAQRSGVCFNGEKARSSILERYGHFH

B1: RD29a DRE (dsDNA)
DNA 1: TAAAAGATATACTACCGACATGAGTTCCAAAAAGC
DNA 2: GCTTTTTGGAACTCATGTCGGTAGTATATCTTTTA
On to B1, for which the binding result is given as “no binding”.

B2: MBS-1 (dsDNA)
DNA 1: CGAGACACCCTAACTGACACACATTCT
DNA 2: AGAATGTGTGTCAGTTAGGGTGTCTCG
In the case of B2, the binding result is “binds”.

B3: RD22 (dsDNA)
DNA 1: CTTCTAACCACTACGTGCCTTCTGCTCCTTCTGC
DNA 2: GCAGAAGGAGCAGAAGGCACGTAGTGGTTAGAAG
As to B3, the binding result was “binds”.

The values above are taken from paper PMC4497479, “Molecular characterization of an MYB transcription factor from a succulent halophyte involved in stress tolerance”.
